From US20260125472A1 (HEFEI TG IMMUNOPHARMA, published 2026)

Key:
CD3 on CD8 T cells [1] = biological target: T1, CD3 on CD8 T cells (Homo sapiens (Human), UniProt P07766 23-207); assay: flow cytometry, CD8 T cells in PBMCs, binding ratio % [panel A]
T1 construct: Native CD3 complex on CD8 T cells among PBMCs; also called T cells (PBMCs gated with anti-human CD8 antibody)
In short: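 PBMCs at 2×10⁶/mL blocked with goat serum for 30 min at 4° C, then after washing stained for 30 min at 4° C in the dark with Alexa-647 goat anti-human secondary plus PerCP-Cy5.5 anti-CD8. Analysed by flow cytometry on CD8 T cells as binding ratio % and MFI.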

CD3E&D protein [2] = biological target: T2, CD3E&D protein (UniProt P04234 22-105); assay: ELISA, coated CD3E&D protein, OD450 [panel B]
T2 construct: Purchased from Acro; also called CD3 E&D antigens; CD3E&D antigen protein
T2 sequence (chain, as listed by the source limits assumed, chain 1 of 2): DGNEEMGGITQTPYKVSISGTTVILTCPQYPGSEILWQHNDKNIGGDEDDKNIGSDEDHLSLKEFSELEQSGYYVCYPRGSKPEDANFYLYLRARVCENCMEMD
T2 sequence (P04234 22-105 limits assumed, chain 2 of 2): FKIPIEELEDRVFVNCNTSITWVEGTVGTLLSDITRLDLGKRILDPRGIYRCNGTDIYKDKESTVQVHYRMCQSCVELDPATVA
Description: In this example, the binding properties of the parental antibody Cross3 and the CD3 affinity-reduced antibody (the production method and the amino acid sequences of the heavy and light chains were shown in Example 1) were detected by ELISA. The CD3E&D protein was coated onto a 96-well plate by the inventors, and the strength of the signal after the addition of the antibody was used to determine the binding properties of the antibody and CD3E&D.
CD3E&D protein (purchased from Acro) was diluted to 2 μg/ml with PBS buffer, added to a 96-well plate at a volume of 100 μL/well, and placed at 4° C. overnight. The PBS buffer in the 96-well plate was aspirated, and the plate was washed 6 times with PBST (pH 7.2 PBS containing 0.1% Tween 20) buffer. Then, 200 μL/well PBS/10% BSA was added and incubated at 37° C. for 2 h for blocking. The blocking solution was removed, and the plate was washed six times with PBST. Then, the to-be-tested antibodies serially diluted with PBST/0.05% BSA, Cross3, Cross303, Cross307, Cross308, Cross309, Cross310, Cross311, Cross312, Cross313, Cross314, Cross316, Cross317, Cross318, Cross323, Cross325, Cross326, and control IgG1 (purchased from Bio-Tech) were added at 100 μL/well, and incubated at 37° C. for 1 h. The reaction system was removed, and the plate was washed 6 times with PBST. Then, the cells were incubated at 37° C. for 1 h with HRP (horseradish peroxidase)-labeled anti-human secondary antibody (Fab specific) (purchased from Sigma) serially diluted with PBST/0.05% BSA at 100 μL/well. The plate was washed six times with PBST, TMB (tetramethylbenzidine) was added at 80 μL/well and incubated at room temperature for 3 min. 4 M sulfuric acid was added at 80 μL/well to terminate the reaction. The absorbance was read at 450 nm using a microplate reader.

CD3E&D protein [3] = biological target: T2, CD3E&D protein; assay: SPR (Biacore 8K), antibody on CM5 chip, CD3 E&D antigen as analyte; parameters: Fold change: reference not given here
Description: In a Biacore 8K (Cytiva) system, the antibody was diluted to 10 μg/mL in HBS-EP running buffer and coupled to a CM5 chip (Cytiva) at a flow rate of 10 μL/min.

CD3 on CD8 T cells [4] = biological target: T1, CD3 on CD8 T cells; assay: flow cytometry, CD8 T cells in PBMCs, MFI [panel B]
Description: PBMCs were diluted with PBS to 2×10⁶/mL and added to a 1.5 ml EP tube at a volume of 100 μL/tube, 10 μL/tube of goat serum was added thereto and incubated at 4° C. for 30 min for blocking. […] 1 mL of PBS was added to the EP tube, followed by centrifugation at 3500 rpm for 5 min at 4° C. The supernatant was discarded, and the cells were washed again with PBS. After centrifugation, the supernatant was discarded, and the cells were resuspended with 100 μl/tube PBS. 1 μl/tube Alexa-647-labeled goat anti-human secondary antibody (purchased from Jackson lab) and 0.5 μl/tube PerCP-Cy5.5-labeled anti-human CD8 antibody were added and incubated at 4° C. in the dark for 30 min. The cells were washed twice with PBS, and the supernatant was discarded after centrifugation. The cells were resuspended with […] of PBS and assayed using the flow cytometry.

PDL1 protein = biological target: T3, PDL1 protein (UniProt Q9NZQ7 19-238); assay: ELISA, coated PDL1 protein, OD450 [panel B]
T3 construct: Bought recombinant protein
T3 sequence (Q9NZQ7 19-238 limits assumed): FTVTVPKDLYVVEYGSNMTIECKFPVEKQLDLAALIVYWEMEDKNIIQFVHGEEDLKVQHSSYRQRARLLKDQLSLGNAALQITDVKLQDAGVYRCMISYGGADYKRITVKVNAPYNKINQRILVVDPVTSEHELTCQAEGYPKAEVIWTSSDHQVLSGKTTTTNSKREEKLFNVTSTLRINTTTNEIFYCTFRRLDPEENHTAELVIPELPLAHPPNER
Description: (3) PDL1 protein (purchased from Acro) was diluted to 2 μg/ml with PBS buffer, added to a 96-well plate at a volume of 100 μL/well, and placed at 4° C. overnight. The PBS buffer in the 96-well plate was aspirated, and the plate was washed 6 times with PBST (pH 7.2 PBS containing 0.10% Tween 20) buffer. Then, PBS/10% BSA was added at 200 μL/well and incubated at 37° C. for 2 h for blocking. The blocking solution was removed, and the plate was washed six times with PBST. Then, the to-be-tested bispecific antibodies serially diluted with PBST/0.05% BSA, Cross3×PDL1, Cross303×PDL1, Cross307×PDL1, Cross308×PDL1, Cross309×PDL1, Cross310×PDL1, Cross311×PDL1, Cross312×PDL1, Cross313×PDL1, Cross314×PDL1, Cross316×PDL1, Cross317×PDL1, Cross318×PDL1, Cross323×PDL1, Cross325×PDL1, Cross326×PDL1, and control IgG1LALA (purchased from Bio-Tech) were added at 100 μL/well, and incubated at 37° C. for 1 h. The reaction system was removed, and the plate was washed 6 times with PBST. Then, the cells were incubated at 37° C. for 1 h with HRP (horseradish peroxidase)-labeled anti-human secondary antibody (Fab specific) (purchased from Sigma) serially diluted with PBST/0.05% BSA at 100 μL/well. After the plate was washed six times with PBST, TMB (tetramethylbenzidine) was added at 80 μL/well and incubated at room temperature for 3 min. 4 M sulfuric acid was added at 80 μL/well to terminate the reaction. The absorbance was read at 450 nm using a microplate reader.

[5] = biological target: T4, PDL1 on A-375 melanoma cells, HCT-15 colorectal cancer cells and A549 lung cancer cells (UniProt Q9NZQ7 19-290, limits assumed); assay: flow cytometry, A-375 cells, binding ratio % [panel A]
T4 construct: whole, on cells
T4 sequence (Q9NZQ7 19-290 limits assumed): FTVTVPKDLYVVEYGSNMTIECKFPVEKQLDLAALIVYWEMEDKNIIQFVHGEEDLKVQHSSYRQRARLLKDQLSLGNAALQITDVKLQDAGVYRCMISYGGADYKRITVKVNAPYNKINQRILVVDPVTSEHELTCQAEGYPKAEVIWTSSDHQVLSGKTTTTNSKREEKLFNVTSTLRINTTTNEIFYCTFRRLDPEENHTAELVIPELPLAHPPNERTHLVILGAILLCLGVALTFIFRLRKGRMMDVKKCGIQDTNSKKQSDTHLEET
Description: (§1) (2) The tumor cells were diluted to 2×10⁶/ml with PBS and added to a 1.5 ml EP tube at a volume of 100 μl/tube, and goat serum was added thereto at 10 μl/tube. The cells were blocked at 4° C. for 30 min. The serially diluted bispecific antibodies, Cross3×Trop2, Cross303×Trop2, Cross307×Trop2, Cross308×Trop2, Cross309×Trop2, Cross310×Trop2, Cross311×Trop2, Cross312×Trop2, Cross313×Trop2, Cross314×Trop2, Cross316×Trop2, Cross317×Trop2, Cross318×Trop2, Cross323×Trop2, Cross325×Trop2, Cross326×Trop2, and Cross3×PDL1, Cross303×PDL1, Cross307×PDL1, Cross308×PDL1, Cross309×PDL1, Cross310×PDL1, Cross311×PDL1, Cross312×PDL1, Cross313×PDL1, Cross314×PDL1, Cross316×PDL1, Cross317×PDL1, Cross318×PDL1, Cross323×PDL1, Cross325×PDL1, Cross326×PDL1, and control hIgG1LALA (purchased from Bio-Tech) were added and incubated at 4° C. for 30 min. 1 ml of PBS was added to the EP tube, followed by centrifugation at 3500 rpm for 5 min at 4° C. The supernatant was discarded, and the cells were washed again with PBS. After centrifugation, the supernatant was completely discarded, and the cells were resuspended with PBS at 100 μl/tube. Alexa-647-labeled goat anti-human IgG secondary antibody (purchased from Jackson lab) was added at 1 μl/tube and incubated at 4° C. in the dark for 30 min. The cells were washed twice with PBS, and the supernatant was completely discarded after centrifugation. The cells were resuspended with PBS at 200 μl/tube and assay was performed using the flow cytometry.

[6] = biological target: T4, PDL1 on A-375 melanoma cells, HCT-15 …; assay: flow cytometry, HCT-15 cells, binding ratio % [panel A]
Description: as §1, with “The cells were resuspended with PBS at 200 μl/tube and assay was performed using the flow cytometry.” left out

T1 sequence (P07766 23-207 limits assumed): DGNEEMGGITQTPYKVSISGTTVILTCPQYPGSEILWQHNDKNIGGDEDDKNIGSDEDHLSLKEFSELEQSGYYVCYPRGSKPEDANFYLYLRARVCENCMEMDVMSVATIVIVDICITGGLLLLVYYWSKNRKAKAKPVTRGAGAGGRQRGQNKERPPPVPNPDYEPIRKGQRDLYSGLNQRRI

| Binder | EC50 (read off the curve) (CD3 on CD8 T cells [1]) | EC50 (read off the curve) (CD3E&D protein [2]) | Fold change (CD3E&D protein [3]) | Kd (CD3E&D protein [3]) | koff (CD3E&D protein [3]) | kon (CD3E&D protein [3]) | EC50 (read off the curve) (CD3 on CD8 T cells [4]) | EC50 (read off the curve) (PDL1 protein) | EC50 (read off the curve) [5] | EC50 (read off the curve) [6] |
| --- | --- | --- | --- | --- | --- | --- | --- | --- | --- | --- |
| Cross317 (antibody, human IgG1, kappa, V domains shown) VH: EVQLLESGGGLVQPGGSLKLSCAASGFTFNTYAMNWVRQAPGKGLEWVARIRSKYNNYATYYADSVKDRFTISRDDSKNTAYLQMNNLKTEDTAVYYCVRHGNFGNSYVSWFAGWGQGTLVTVSS VL: ELVVTQEPSLTVSPGGTVTLTCRSSTGAVTTSNYANWVQQKPGQAPRGLIGGTNKRAPGTPARFSGSLLGGKAALTLSGVQPEDEAEYYCALWYSNLWVFGGGTKLTVLR | ~0.5 µg/mL | ~30 ng/mL | 16.2 | 2.68 nM | 0.00761 s⁻¹ | 2.84e+06 M⁻¹ s⁻¹ | ~2 µg/mL |  |  |  |
| Cross326×PDL1 (bispecific antibody, human IgG1, kappa, L234A L235A) scFv: not shown heavy: QVQLVQSGAEVKKPGASVKVSCKASGYSFTGYYMHWVRQAPGQGLEWIGRINPYNGATTYSQNFKDRATMTVDTSISTAYMELSRLRSDDTAVYYCVPTGMGYFLMDYWGQGTLVTVSSASTKGPSVFPLAPSSKSTSGGTAALGCLVKDYFPEPVTVSWNSGALTSGVHTFPAVLQSSGLYSLSSVVTVPSSSLGTQTYICNVNHKPSNTKVDKKVEPKSCDKTHTCPPCPAPEAAGGPSVFLFPPKPKDTLMISRTPEVTCVVVDVSHEDPEVKFNWYVDGVEVHNAKTKPREEQYNSTYRVVSVLTVLHQDWLNGKEYKCKVSNKALPAPIEKTISKAKGQPREPQVCTLPPSREEMTKNQVSLSCAVKGFYPSDIAVEWESNGQPENNYKTTPPVLDSDGSFFLVSKLTVDKSRWQQGNVFSCSVMHEALHNHYTQKSLSLSPGK light: DIQLTQSPSFLSASVGDRVTITCKASQDVGSAVVWYQQKPGKAPKLLIYWASTRHTGVPSRFSGSGSGTEFTLTISSLQPEDFATYFCQQFTSYPTFGQGTKLEIKRTVAAPSVFIFPPSDEQLKSGTASVVCLLNNFYPREAKVQWKVDNALQSGNSQESVTEQDSKDSTYSLSSTLTLSKADYEKHKVYACEVTHQGLSSPVTKSFNRGEC |  |  |  |  |  |  |  | ~100 ng/mL | ~0.07 µg/mL | ~0.07 µg/mL |
